Common to all, as to assay: EMSA; 25 mM Tris pH 8.0, 100 mM KCl, 1.5 mM MgCl2, 0.2 mM EGTA, 0.05% Nonidet P-40, 1 mM DTT, 5% glycerol, 50 ug/ml heparin; 30 C 30 min, then ice 10 min; 1 nM RNA; 6% native PAGE in cold room
(A gel shift assay detects complexes by their altered migration in electrophoresis.)

The target of series [1] is T1, YBX1 (UniProt P67809 1-324). Particulars: protein: recombinant; tags: His6-MBP (N-terminal vector tag); label: 5'-IRD800CWN.
In series [2] the target is T1, YBX1. Particulars: protein: recombinant; tags: His6-MBP (N-terminal vector tag); label: 5'-IRD800CWN. The source holds these as a separate data set.
The target of series [3] is YBX1(F85A) (UniProt P67809 1-324, F85A). Conditions: protein: recombinant; tags: His6-MBP; label: 5'-IRD800CWN.
Series [4] has as its target YBAP1 (UniProt Q07021 74-282). Particulars: protein: recombinant; tags: His6-MBP; chain copies: 3; label: 5'-IRD800CWN.
Series [5] has as its target T1, YBX1. Conditions: protein: recombinant; tags: His6-MBP (N-terminal vector tag); label: 5'-IRD800CWN. This is another data set of the same source.

T1 sequence (P67809 whole entry): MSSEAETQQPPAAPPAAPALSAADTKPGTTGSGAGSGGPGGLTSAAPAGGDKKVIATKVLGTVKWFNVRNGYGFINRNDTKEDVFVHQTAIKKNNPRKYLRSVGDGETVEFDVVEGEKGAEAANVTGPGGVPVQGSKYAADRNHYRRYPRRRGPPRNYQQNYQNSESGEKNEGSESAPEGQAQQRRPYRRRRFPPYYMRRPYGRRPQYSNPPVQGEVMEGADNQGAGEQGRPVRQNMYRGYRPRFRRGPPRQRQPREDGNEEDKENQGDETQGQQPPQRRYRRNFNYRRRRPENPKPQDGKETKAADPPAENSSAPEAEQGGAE
Chain of YBAP1 (Q07021 74-282): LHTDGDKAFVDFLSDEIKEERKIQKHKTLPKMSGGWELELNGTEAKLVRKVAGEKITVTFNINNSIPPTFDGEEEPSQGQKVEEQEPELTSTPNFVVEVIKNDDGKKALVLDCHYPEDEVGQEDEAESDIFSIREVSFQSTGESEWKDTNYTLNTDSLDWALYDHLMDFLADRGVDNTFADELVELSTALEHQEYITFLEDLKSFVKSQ
Chain of YBX1(F85A) (P67809 whole entry F85A): as the sequence (P67809 whole entry) above, with F85A counted along it

For UGUCAGUUUUGAUAUAUUAGGU (ssRNA) [miR190sort], the binding signal in series [1] was roughly 8 fold stronger than miR190. With UGUCAGUUUGUCAAAUACCCCA (ssRNA) [miR223 (hsa-miR-223-3p)], the Kd (in general, the constant that tells how readily two partners part at equilibrium) in series [2] was 4.2 nM. Further, the binding result in series [3] is on record as “no binding”; in series [4] it was “binds”.

UGAUAUGUUUGAUAUAUUAGGU (ssRNA) [miR190 (hsa-miR-190-5p)]: the binding result in series [4] was “no binding”. In addition, the binding signal in series [5] was roughly 140 fold weaker than miR223. For UGAGACAUUGUCAAAUACCCCA (ssRNA) [miR223mut], the binding signal in series [1] was roughly 27 fold weaker than miR223.

Source of the values: article PMC10403255, “Two RNA-binding proteins mediate the sorting of miR223 from mitochondria into exosomes”.
